{
  "source": "the RNAGym collection of RNA variant scans (doi:10.7554/elife.80360)",
  "parents": {"B1": {"name": "Hairpin Ribozyme (parent)", "chain": "GUCCUCUUUCACGUGCGCGUGAAAGAGAGAAGUGAACCAGAGAAACACACGUUGUGGUAUAUUACCUGGUA"}},
  "data": [
    {"variants_of": "B1", "assay": "self-cleavage, relative activity (ratio to wild type); higher = more cleavage; co-transcriptional", "values": [
      {"variant": "G51A U70G", "self-cleavage": 0.792},
      {"variant": "G51U U58A", "self-cleavage": 0.439},
      {"variant": "G51U A71U", "self-cleavage": 0.793},
      {"variant": "G51C U53G", "self-cleavage": 0.675},
      {"variant": "G51C U53C", "self-cleavage": 0.828},
      {"variant": "C50G U53A", "self-cleavage": 0.251},
      {"variant": "C50G U53G", "self-cleavage": 0.0749},
      {"variant": "G51U G57C", "self-cleavage": 0.137},
      {"variant": "G51U G57U", "self-cleavage": 0.271},
      {"variant": "C50A U70C", "self-cleavage": 0.244},
      {"variant": "G51C U55C", "self-cleavage": 0.306},
      {"variant": "G51C U55G", "self-cleavage": 0.268},
      {"variant": "U53A U67A", "self-cleavage": 0.109},
      {"variant": "U53A U67G", "self-cleavage": 0.385},
      {"variant": "C50G A71U", "self-cleavage": 0.148},
      {"variant": "C50G A71G", "self-cleavage": 0.202},
      {"variant": "G51U G54A", "self-cleavage": 0.72},
      {"variant": "G51U G54U", "self-cleavage": 0.508},
      {"variant": "A49C U62C", "self-cleavage": 0.22},
      {"variant": "C50U C65A", "self-cleavage": 0.359},
      {"variant": "C50G U58A", "self-cleavage": 0.0745},
      {"variant": "C50G U58C", "self-cleavage": 0.297},
      {"variant": "C50U G51C", "self-cleavage": 0.256},
      {"variant": "U53C G54C", "self-cleavage": 0.546},
      {"variant": "U53C G54U", "self-cleavage": 0.573},
      {"variant": "C50A U60G", "self-cleavage": 0.248},
      {"variant": "G51A G57U", "self-cleavage": 0.299},
      {"variant": "U52G C66G", "self-cleavage": 0.215},
      {"variant": "G54A A71G", "self-cleavage": 0.426},
      {"variant": "G54A A71U", "self-cleavage": 0.309},
      {"variant": "A49G G56U", "self-cleavage": 0.261},
      {"variant": "U52C A64U", "self-cleavage": 0.331},
      {"variant": "C48U U67C", "self-cleavage": 0.11},
      {"variant": "C48U U67A", "self-cleavage": 0.119},
      {"variant": "G54A G56C", "self-cleavage": 0.0439},
      {"variant": "G51U U53G", "self-cleavage": 0.707},
      {"variant": "C48U U60A", "self-cleavage": 0.107},
      {"variant": "C50U U60A", "self-cleavage": 0.251},
      {"variant": "G51A U53G", "self-cleavage": 0.765},
      {"variant": "G51A U53A", "self-cleavage": 0.869},
      {"variant": "U52A U55G", "self-cleavage": 0.372},
      {"variant": "G51C U70A", "self-cleavage": 0.898},
      {"variant": "G51C U70C", "self-cleavage": 1.01},
      {"variant": "U53A A71G", "self-cleavage": 1.07},
      {"variant": "U53C U58G", "self-cleavage": 0.948},
      {"variant": "U52G G54U", "self-cleavage": 0.417},
      {"variant": "U52G G54A", "self-cleavage": 0.375},
      {"variant": "U52G G54C", "self-cleavage": 0.42},
      {"variant": "A49C U63C", "self-cleavage": 0},
      {"variant": "U53G U62A", "self-cleavage": 0.0694},
      {"variant": "C50U G57A", "self-cleavage": 0.112},
      {"variant": "U53A C66G", "self-cleavage": 0.247},
      {"variant": "U52C A59G", "self-cleavage": 0.0564},
      {"variant": "U52C A59C", "self-cleavage": 0.254},
      {"variant": "G51U U62C", "self-cleavage": 0.324},
      {"variant": "C48U A71U", "self-cleavage": 0.146},
      {"variant": "C48U A71C", "self-cleavage": 0.387},
      {"variant": "U52G A61C", "self-cleavage": 0.147},
      {"variant": "U52C A71G", "self-cleavage": 1.08},
      {"variant": "U52C A71C", "self-cleavage": 1.51},
      {"variant": "C50A C66A", "self-cleavage": 0.145},
      {"variant": "U52A C65U", "self-cleavage": 0.328},
      {"variant": "U53A G54C", "self-cleavage": 0.472},
      {"variant": "U53A G54U", "self-cleavage": 0.609},
      {"variant": "U52A G68C", "self-cleavage": 0.231},
      {"variant": "G51A C66U", "self-cleavage": 0.574},
      {"variant": "A49U U55A", "self-cleavage": 1.03},
      {"variant": "C50U A59U", "self-cleavage": 0.272},
      {"variant": "A49G U52A", "self-cleavage": 0.614},
      {"variant": "A49G U52C", "self-cleavage": 0.502},
      {"variant": "A49G U52G", "self-cleavage": 0.371},
      {"variant": "G51A U52A", "self-cleavage": 1.15},
      {"variant": "U52G A64U", "self-cleavage": 0.183},
      {"variant": "U52C G68C", "self-cleavage": 0.219},
      {"variant": "U52C G68A", "self-cleavage": 0.258},
      {"variant": "U52C G68U", "self-cleavage": 0.311},
      {"variant": "A49C G68U", "self-cleavage": 0.118},
      {"variant": "A49C G68C", "self-cleavage": 0.15},
      {"variant": "A49C G68A", "self-cleavage": 0.164},
      {"variant": "U53G G69A", "self-cleavage": 0.363},
      {"variant": "G54A C66U", "self-cleavage": 0.272},
      {"variant": "G54A C66A", "self-cleavage": 0.229},
      {"variant": "U52C U62G", "self-cleavage": 0.0331},
      {"variant": "U52G G69A", "self-cleavage": 0.263},
      {"variant": "C50A U52G", "self-cleavage": 0.361},
      {"variant": "C50A U52A", "self-cleavage": 0.293},
      {"variant": "C50A U52C", "self-cleavage": 0.31},
      {"variant": "A49C U58A", "self-cleavage": 0.082},
      {"variant": "A49C G56U", "self-cleavage": 0.23},
      {"variant": "U52G U53C", "self-cleavage": 1},
      {"variant": "C48U U62A", "self-cleavage": 0.201},
      {"variant": "C48U U62C", "self-cleavage": 0.118},
      {"variant": "A49G U53A", "self-cleavage": 0.4},
      {"variant": "U52C U67G", "self-cleavage": 0.276},
      {"variant": "U52A A64U", "self-cleavage": 0.177},
      {"variant": "G51U U60G", "self-cleavage": 0.659},
      {"variant": "G51U U60C", "self-cleavage": 1.49},
      {"variant": "A49C C50U", "self-cleavage": 0.122},
      {"variant": "C48U U63C", "self-cleavage": 0.19},
      {"variant": "C48U U63G", "self-cleavage": 0.163},
      {"variant": "C50U A64G", "self-cleavage": 0.216},
      {"variant": "U53A G57C", "self-cleavage": 0.145},
      {"variant": "U52C U53A", "self-cleavage": 1.07},
      {"variant": "A49G U62G", "self-cleavage": 0.0712},
      {"variant": "A49G U62A", "self-cleavage": 0.0894},
      {"variant": "G51U C66U", "self-cleavage": 0.599},
      {"variant": "G51U C65U", "self-cleavage": 0.284},
      {"variant": "G51U C65A", "self-cleavage": 1.21},
      {"variant": "A49U U70A", "self-cleavage": 0.237},
      {"variant": "C50A G56A", "self-cleavage": 0.21},
      {"variant": "U53A", "self-cleavage": 1.01},
      {"variant": "U53C", "self-cleavage": 0.97},
      {"variant": "U53G", "self-cleavage": 0.86},
      {"variant": "U52A G54A", "self-cleavage": 0.621},
      {"variant": "U53A G69A", "self-cleavage": 0.484},
      {"variant": "A49G C66A", "self-cleavage": 0.302},
      {"variant": "A49G C66G", "self-cleavage": 0.192},
      {"variant": "C48U G69A", "self-cleavage": 0.178},
      {"variant": "U52G U70A", "self-cleavage": 0.638},
      {"variant": "G51A G54C", "self-cleavage": 0.36},
      {"variant": "A49U U62A", "self-cleavage": 0.186},
      {"variant": "U53G A71G", "self-cleavage": 0.73},
      {"variant": "A49U C66U", "self-cleavage": 0.102},
      {"variant": "A49U C66A", "self-cleavage": 0.181},
      {"variant": "A49U C66G", "self-cleavage": 0.136},
      {"variant": "C50G U70A", "self-cleavage": 0.178},
      {"variant": "G51C U63G", "self-cleavage": 0.0973},
      {"variant": "G51C U63A", "self-cleavage": 0.199},
      {"variant": "C50U G69U", "self-cleavage": 0.128},
      {"variant": "U53A U58C", "self-cleavage": 0.574},
      {"variant": "G51C A64C", "self-cleavage": 0.156},
      {"variant": "G51C A64G", "self-cleavage": 0.521},
      {"variant": "C50A G57U", "self-cleavage": 0.128},
      {"variant": "A49C G51C", "self-cleavage": 0.1},
      {"variant": "A49C G51U", "self-cleavage": 0.0813},
      {"variant": "G51C C65G", "self-cleavage": 0.205},
      {"variant": "A49U U60G", "self-cleavage": 0.0756},
      {"variant": "C50A A71C", "self-cleavage": 0.816},
      {"variant": "C50A A71U", "self-cleavage": 0.227},
      {"variant": "U52C G56A", "self-cleavage": 0.211},
      {"variant": "U53G U60G", "self-cleavage": 0.704},
      {"variant": "A49U G51A", "self-cleavage": 0.209},
      {"variant": "A49U G51C", "self-cleavage": 0.166},
      {"variant": "G51A A61C", "self-cleavage": 0.0891},
      {"variant": "C48U U70G", "self-cleavage": 0.211},
      {"variant": "C48U U70A", "self-cleavage": 0.152},
      {"variant": "A49G U60A", "self-cleavage": 0.475},
      {"variant": "A49G U60C", "self-cleavage": 0.722},
      {"variant": "A49C G54A", "self-cleavage": 0.235},
      {"variant": "U53A A59U", "self-cleavage": 0.129},
      {"variant": "U53A A59G", "self-cleavage": 0.177},
      {"variant": "U52A", "self-cleavage": 1.03},
      {"variant": "U52G", "self-cleavage": 0.862},
      {"variant": "U52C", "self-cleavage": 0.97},
      {"variant": "C50A U53G", "self-cleavage": 0.395},
      {"variant": "U52A U62G", "self-cleavage": 0.0279},
      {"variant": "U52A U62C", "self-cleavage": 0.187},
      {"variant": "U53A G56U", "self-cleavage": 0.105},
      {"variant": "G51A G56U", "self-cleavage": 0.166},
      {"variant": "C50G U52C", "self-cleavage": 0.155},
      {"variant": "U52G C65A", "self-cleavage": 0.782},
      {"variant": "C50G G68A", "self-cleavage": 0.132},
      {"variant": "C50G U60C", "self-cleavage": 0.353},
      {"variant": "C48U A59C", "self-cleavage": 0.222},
      {"variant": "C48U A59G", "self-cleavage": 0.121},
      {"variant": "U53C A59G", "self-cleavage": 0.303},
      {"variant": "G51U U63A", "self-cleavage": 0.215}
    ]}
  ]
}
